The text below walks through data of US20190100587A1 (COVAGEN, published 2019).

Where two headings read alike, the source gives them in different places.

As usually defined, the Kd is a measure of binding affinity in units of concentration. In general, koff refers to the first-order rate constant of dissociation. What is called kon is a measure of how fast the partners come together. The term EC50 (read off the curve) denotes the concentration at which the effect is half-maximal. Read a high EC50 (read off the curve) as a less potent agent. One may read the IC50 as the concentration needed to halve the response being measured.

The target of experiment [1] is T1, human recombinant FcγRIIIA (158F; R&D Systems) (human, UniProt P08637 17-208).
T1 construct: Amine-coupled to a BIAcore CM5 chip (1400 RU); also called CD16A
The experiment is described as follows: SPR (BIAcore), FcγRIIIA 158F on chip, steady-state model. (In SPR one partner is held on a chip, and binding of the other changes the refractive index at the surface.)

Experiment [2] concerns the target T2, human recombinant FcγRI (Sino Biological) (human, UniProt P12314 16-288, limits assumed).
T2 construct: Amine-coupled to a BIAcore CM5 chip (1500 RU); also called CD64
The experiment can be described thus: SPR (BIAcore), FcγRI on chip, 1:1 Langmuir model.

Experiment [3] concerns the target T3, His-tagged human FcγRIIB (R&D, carrier-free formulation) (human, UniProt P31994 46-217, limits assumed).
T3 construct: also called CD32B
T3 sequence (looked up): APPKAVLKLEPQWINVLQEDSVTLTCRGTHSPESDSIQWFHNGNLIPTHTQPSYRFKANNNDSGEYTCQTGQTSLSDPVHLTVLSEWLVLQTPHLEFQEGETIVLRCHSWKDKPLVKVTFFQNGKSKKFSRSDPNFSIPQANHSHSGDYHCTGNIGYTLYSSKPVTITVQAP
The experiment is described as follows: AlphaScreen competition assay; titrated antibody competes with biotinylated B21M IgG1 for His-tagged human FcγRIIB. (In Alpha technology, singlet oxygen from a donor bead excites a nearby acceptor bead.)

Experiment [4] has as its target T4, His-tagged human FcγRIIA (R&D, carrier-free formulation) (human, UniProt P12318 36-218, limits assumed).
T4 construct: also called CD32A
T4 sequence (looked up): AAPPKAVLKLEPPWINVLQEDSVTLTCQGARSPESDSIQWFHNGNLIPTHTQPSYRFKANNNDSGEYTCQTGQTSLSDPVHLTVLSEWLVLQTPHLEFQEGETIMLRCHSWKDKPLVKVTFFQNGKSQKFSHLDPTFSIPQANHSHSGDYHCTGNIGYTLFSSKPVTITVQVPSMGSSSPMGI
The experiment can be described thus: AlphaScreen competition assay; titrated antibody competes with biotinylated B21M IgG1 for His-tagged human FcγRIIA.

In experiment [5] the target is T4, His-tagged human FcγRIIA (R&D, …). The experiment is described as above. The source holds these as a separate data set.
The target of experiment [6] is T2, human recombinant FcγRI (Sino …). The experiment can be described thus: SPR (BIAcore), FcγRI on chip, steady-state model.
In experiment [7] the target is T5, human CD3 on CD3+ Jurkat cells (human).
T5 construct: whole, on cells
The experiment is described as follows: flow cytometry on CD3+ Jurkat cells, bound antibody detected with anti-human IgG-Alexa488. In general terms: In flow cytometry, cells or beads pass a laser one at a time.

The target of experiment [8] is T6, His-tagged human FcγRI (R&D, carrier-free formulation) (human, UniProt P12314 16-288).
T6 construct: also called CD64; human FcγR1
The experiment is described as follows: AlphaScreen competition on His-tagged FcγRI; competitor biotinylated B21M LALA IgG1.

For experiment [9], the target named is T1, human recombinant FcγRIIIA (158F; R&D …). The experiment is described as follows: SPR (BIAcore), FcγRIIIA 158F on chip, 1:1 Langmuir model.
The target of experiment [10] is T2, human recombinant FcγRI (Sino …). The experiment can be described thus: SPR (BIAcore), FcγRI on chip, kinetic (koff/kon).
For experiment [11], the target named is T1, human recombinant FcγRIIIA (158F; R&D …). The experiment can be described thus: SPR (BIAcore), FcγRIIIA 158F on chip, kinetic (koff/kon).
The target in experiment [12] is T7, Human C1q (EMD Millipore) (human, UniProt P02745 23-245; P02746 28-253; P02747 29-245). The experiment is described as follows: SPR (BIAcore T100), antibody on CM5 chip, C1q injected, steady-state model.
The target of experiment [13] is T8, His-tagged human FcγRIIIA (R&D, carrier-free formulation) (human, UniProt P08637 17-208).
T8 construct: also called CD16A
The experiment is described as follows: AlphaScreen competition assay; titrated antibody competes with biotinylated B21M IgG1 for His-tagged human FcγRIIIA.

Experiment [14] deals with T8, His-tagged human FcγRIIIA (R&D, …). The experiment is described as above. The source holds these as a separate data set.
For experiment [15], the target named is T9, human recombinant FcRn (Sino Biological) (human, UniProt P55899 24-297; P61769 21-119).
T9 construct: Amine-coupled to a CM5 chip (600 RU); also called neonatal Fc receptor
The experiment is described as follows: SPR (BIAcore), FcRn on chip, pH 6.0, steady-state model.

In experiment [16] the target is T7, Human C1q (EMD Millipore). The experiment is described as follows: SPR (BIAcore T100), antibody amine-coupled on a CM5 chip, human C1q injected.
Experiment [17] addresses T1, human recombinant FcγRIIIA (158F; R&D …). The experiment is described as follows: SPR (BIAcore), human FcγRIIIA (158F) amine-coupled on a CM5 chip, antibody injected.

T6 sequence (P12314 16-288 limits assumed): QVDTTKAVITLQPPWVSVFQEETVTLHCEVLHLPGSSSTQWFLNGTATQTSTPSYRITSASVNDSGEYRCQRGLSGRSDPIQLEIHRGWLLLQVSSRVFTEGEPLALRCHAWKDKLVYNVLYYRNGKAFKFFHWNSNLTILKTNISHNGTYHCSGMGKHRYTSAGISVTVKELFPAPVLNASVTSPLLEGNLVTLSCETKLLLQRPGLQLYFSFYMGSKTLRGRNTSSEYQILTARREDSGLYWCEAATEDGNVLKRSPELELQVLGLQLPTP
T2 sequence (P12314 16-288 limits assumed): as above
T1 sequence (P08637 17-208 limits assumed): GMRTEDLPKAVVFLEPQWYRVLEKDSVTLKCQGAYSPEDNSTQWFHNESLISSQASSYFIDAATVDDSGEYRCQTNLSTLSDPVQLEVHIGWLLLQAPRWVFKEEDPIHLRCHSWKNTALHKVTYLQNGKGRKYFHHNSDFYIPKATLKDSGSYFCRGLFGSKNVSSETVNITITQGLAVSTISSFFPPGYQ
T8 sequence (P08637 17-208 limits assumed): as above
T5 sequence (P07766 23-207, chain 1 of 4): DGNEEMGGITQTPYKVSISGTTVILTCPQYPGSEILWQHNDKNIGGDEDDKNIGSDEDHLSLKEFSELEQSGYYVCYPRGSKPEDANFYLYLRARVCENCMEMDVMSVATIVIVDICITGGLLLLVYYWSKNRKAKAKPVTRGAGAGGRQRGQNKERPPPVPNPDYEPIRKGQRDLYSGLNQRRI
T5 sequence (P09693 23-182, chain 2 of 4, further chain): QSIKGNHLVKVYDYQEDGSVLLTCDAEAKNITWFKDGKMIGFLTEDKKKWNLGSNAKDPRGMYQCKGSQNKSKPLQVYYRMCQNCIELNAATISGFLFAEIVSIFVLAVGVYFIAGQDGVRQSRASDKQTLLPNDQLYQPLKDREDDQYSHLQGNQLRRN
T5 sequence (P04234 22-171, chain 3 of 4, further chain): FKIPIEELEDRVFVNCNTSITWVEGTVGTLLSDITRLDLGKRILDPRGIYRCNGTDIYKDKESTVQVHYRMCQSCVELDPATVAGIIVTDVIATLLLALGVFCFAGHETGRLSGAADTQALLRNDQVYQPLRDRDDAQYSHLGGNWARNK
T5 sequence (P20963 22-164, chain 4 of 4, further chain): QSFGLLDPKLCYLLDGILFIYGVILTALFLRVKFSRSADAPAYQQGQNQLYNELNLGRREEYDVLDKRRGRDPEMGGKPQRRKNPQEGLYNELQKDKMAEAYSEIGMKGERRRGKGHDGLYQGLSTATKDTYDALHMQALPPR
T7 sequence (P02745 23-245 limits assumed, chain 1 of 3): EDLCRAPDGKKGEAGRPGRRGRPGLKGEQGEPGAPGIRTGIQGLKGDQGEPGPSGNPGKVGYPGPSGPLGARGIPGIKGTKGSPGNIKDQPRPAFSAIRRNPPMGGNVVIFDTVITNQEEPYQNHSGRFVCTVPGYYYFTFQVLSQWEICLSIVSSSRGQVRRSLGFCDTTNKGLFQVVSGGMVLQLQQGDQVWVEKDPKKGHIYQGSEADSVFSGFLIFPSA
T7 sequence (P02746 28-253 limits assumed, chain 2 of 3): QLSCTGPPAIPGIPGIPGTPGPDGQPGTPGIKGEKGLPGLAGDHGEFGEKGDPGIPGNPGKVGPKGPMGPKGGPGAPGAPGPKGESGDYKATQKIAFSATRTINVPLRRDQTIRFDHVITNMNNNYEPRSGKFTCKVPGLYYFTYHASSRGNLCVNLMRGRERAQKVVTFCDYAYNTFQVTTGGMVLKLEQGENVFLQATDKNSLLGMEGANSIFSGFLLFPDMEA
T7 sequence (P02747 29-245 limits assumed, chain 3 of 3): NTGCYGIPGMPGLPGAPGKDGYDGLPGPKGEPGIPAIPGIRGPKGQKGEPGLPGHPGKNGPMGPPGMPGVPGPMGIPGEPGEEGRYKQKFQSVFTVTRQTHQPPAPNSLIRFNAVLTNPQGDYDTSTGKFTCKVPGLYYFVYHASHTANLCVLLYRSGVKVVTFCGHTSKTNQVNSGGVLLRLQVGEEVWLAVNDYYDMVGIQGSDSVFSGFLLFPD
T9 sequence (P55899 24-297 limits assumed, chain 1 of 2): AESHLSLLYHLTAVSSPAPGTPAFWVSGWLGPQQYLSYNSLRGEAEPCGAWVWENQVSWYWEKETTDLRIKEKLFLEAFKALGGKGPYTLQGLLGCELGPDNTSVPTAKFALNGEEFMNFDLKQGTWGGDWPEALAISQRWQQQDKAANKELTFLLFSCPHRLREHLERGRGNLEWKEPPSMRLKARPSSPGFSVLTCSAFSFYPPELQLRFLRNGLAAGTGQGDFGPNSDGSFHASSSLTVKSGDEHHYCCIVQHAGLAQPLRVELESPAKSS
T9 sequence (P61769 21-119 limits assumed, chain 2 of 2): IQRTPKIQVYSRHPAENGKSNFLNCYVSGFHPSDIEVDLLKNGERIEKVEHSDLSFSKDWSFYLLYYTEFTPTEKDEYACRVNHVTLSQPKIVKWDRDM

B1: mAb1 IgG1 (antibody)
heavy: not shown
light: QVVLTQSPAIMSAFPGEKVTMTCSASSSVSYMNWYQQKSGTSPKRWIYDSSKLASGVPARFSGSGSGTSYSLTISSMETEDAATYYCQQWSRNPPTFGGGTKLQITRTVAAPSVFIFPPSDEQLKSGTASVVCLLNNFYPREAKVQWKVDNALQSGNSQESVTEQDSKDSTYSLSSTLTLSKADYEKHKVYACEVTHQGLSSPVTKSFNRGEC
notes: Human IgG1 antibody specific to human CD3, wild-type Fc; also called unmodified IgG; unmutated mAb1 IgG1
Turning to B1, the Kd in experiment [1] was found to be 956 nM; in experiment [6], 243 nM; in experiment [10], 112 nM; in experiment [11] it was 674 nM; in experiment [12], 30 nM; in experiment [15], 470 nM. Also, the values for the koff in experiment [2] and in experiment [9] were 0.00729 s⁻¹ and 0.0214 s⁻¹, respectively. For the same molecule, the kon came to 64900 M⁻¹ s⁻¹ in [2] and 31800 M⁻¹ s⁻¹ in [9]. Moreover, the “IC50 (read off the curve)” value in experiment [3] was about 200 nM; in experiment [4], about 200 nM; in experiment [5], about 200 nM; in experiment [13], about 40 nM; in [14], about 40 nM. The 50% effective concentration (EC50 (read off the curve)) in [7] was about 0.1 nM. Also, the 50% inhibitory concentration (IC50) in experiment [8] was 2.27 nM. For the same molecule, the “IC50 relative to IgG1” value in experiment [8] was 1 fold.

B2: mAb1 DANAPA IgG1 (antibody)
heavy: QVQLQQSGAELARPGASVKMSCKASGYTFTRSTMHWVKQRPGQGLEWIGYINPSSAYTNYNQKFKDKATLTADKSSSTAYMQLSSLTSEDSAVYYCASPQVHYDYNGFPYWGQGTLVTVSAASTKGPSVFPLAPSSKSTSGGTAALGCLVKDYFPEPVTVSWNSGALTSGVHTFPAVLQSSGLYSLSSVVTVPSSSLGTQTYICNVNHKPSNTKVDKKVEPKSCDKTHTCPPCPAPELLGGPSVFLFPPKPKDTLMISRTPEVTCVVVAVSHEDPEVKFNWYVDGVEVHNAKTKPREEQYASTYRVVSVLTVLHQDWLNGKEYKCKVSNKALAAPIEKTISKAKGQPREPQVYTLPPSREEMTKNQVSLTCLVKGFYPSDIAVEWESNGQPENNYKTTPPVLDSDGSFFLYSKLTVDKSRWQQGNVFSCSVMHEALHNHYTQKSLSLSPGK
light: B1 light
notes: mAb1 with Fc mutations D265A, N297A, P329A (EU numbering); also called DANAPA Fc mutated mAb1
With B2, in experiment [7], the 50% effective concentration (EC50 (read off the curve)) was about 0.08 nM. This molecule registered an IC50 in [8] of over 1000 nM. The “IC50 relative to IgG1” value in [8] was over 400 fold. Moreover, the binding result in experiment [16] is reported as “no binding (tested: 200 nM C1q)”; in experiment [17], “no binding (tested: 2000 nM)”. Moreover, the Kd in experiment [15] was determined as 500 nM.
